The source of these data is paper PMC11575137 (BMC Biology, 2024).

The target of this experiment is biotinylated GTP-loaded KRAS (recombinant human KRAS loaded with GppCp) (human, UniProt P01116 1-189). Put plainly: BLI. A general note: BLI is a label-free optical method that tracks binding on a fibre tip over time.
biotinylated GTP-loaded KRAS (recombinant human KRAS loaded with GppCp), sequence (P01116 whole entry): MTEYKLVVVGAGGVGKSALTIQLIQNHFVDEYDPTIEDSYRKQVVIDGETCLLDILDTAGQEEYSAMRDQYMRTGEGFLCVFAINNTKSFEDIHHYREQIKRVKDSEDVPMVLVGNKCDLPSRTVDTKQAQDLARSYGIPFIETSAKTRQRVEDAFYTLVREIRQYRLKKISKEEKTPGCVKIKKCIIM

B1: peptide_(GRB14) (peptide)
peptide: VIKVYSEDETSRALD
Take B1: the Kd – broadly, the constant that tells how readily two partners part at equilibrium – stood at 87 µM.

B2: peptide_(RAB4B) (peptide)
peptide: VVNVGGKTVK
Consider B2, for which the Kd stood at 84 µM.

B3: peptide_(GRB10) (peptide)
peptide: DVKVFSEDGTSKVVE
As for B3, the Kd was 78 µM.

B4: peptide_(BRAF) (peptide)
peptide: IVRVFLPNKQRTVVP
Turning to B4, the Kd was 150 µM.
